# Results as given in publication doi:10.1101/2020.08.06.226779 (bioRxiv, 2020).
# B1: recombinant BCAS0292 (natural protein)
# chain: MSGVRCDGLAIVDAVTLLSAYPDASRDADAPTVIDGRHIYVLRPGDAGQVGHNDNRLFAGLSPGDQLHLRETALALRAEVTVLFIRFALKDAGIVAPIEAEIRDAATPVPDGDDLLHPSCRPMKDHFWRSEVLAPGITTCTADFAVLDRDGAVSGYFRWETAIEIAGSRPDTKQPGVEP
# Molecular target: the molecule itself
# Assay: SEC-MALS
protein,measurement,value
B1,stoichiometry N,2
